Source: the supplement of paper PMC10065799, “High-throughput profiling of sequence recognition by tyrosine kinases and SH2 domains using bacterial peptide display” (eLife, 2023)

molecular target: MERTK (UniProt Q12866); assay: phosphorylation enrichment, bacterial display (enrichment ratio); higher = better substrate or ligand; peptides without Tyr show the background
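Note: 11-residue human phosphosite peptides and single-mutation variants displayed on the E. coli surface, counted by deep sequencing, each peptide's frequency after selection divided by its frequency in the unselected input library; frequency after pTyr selection over input frequency; kinase dosed for 20-30% of maximal phosphorylation in three min.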

Chain of MERTK (Q12866 whole entry, looked up): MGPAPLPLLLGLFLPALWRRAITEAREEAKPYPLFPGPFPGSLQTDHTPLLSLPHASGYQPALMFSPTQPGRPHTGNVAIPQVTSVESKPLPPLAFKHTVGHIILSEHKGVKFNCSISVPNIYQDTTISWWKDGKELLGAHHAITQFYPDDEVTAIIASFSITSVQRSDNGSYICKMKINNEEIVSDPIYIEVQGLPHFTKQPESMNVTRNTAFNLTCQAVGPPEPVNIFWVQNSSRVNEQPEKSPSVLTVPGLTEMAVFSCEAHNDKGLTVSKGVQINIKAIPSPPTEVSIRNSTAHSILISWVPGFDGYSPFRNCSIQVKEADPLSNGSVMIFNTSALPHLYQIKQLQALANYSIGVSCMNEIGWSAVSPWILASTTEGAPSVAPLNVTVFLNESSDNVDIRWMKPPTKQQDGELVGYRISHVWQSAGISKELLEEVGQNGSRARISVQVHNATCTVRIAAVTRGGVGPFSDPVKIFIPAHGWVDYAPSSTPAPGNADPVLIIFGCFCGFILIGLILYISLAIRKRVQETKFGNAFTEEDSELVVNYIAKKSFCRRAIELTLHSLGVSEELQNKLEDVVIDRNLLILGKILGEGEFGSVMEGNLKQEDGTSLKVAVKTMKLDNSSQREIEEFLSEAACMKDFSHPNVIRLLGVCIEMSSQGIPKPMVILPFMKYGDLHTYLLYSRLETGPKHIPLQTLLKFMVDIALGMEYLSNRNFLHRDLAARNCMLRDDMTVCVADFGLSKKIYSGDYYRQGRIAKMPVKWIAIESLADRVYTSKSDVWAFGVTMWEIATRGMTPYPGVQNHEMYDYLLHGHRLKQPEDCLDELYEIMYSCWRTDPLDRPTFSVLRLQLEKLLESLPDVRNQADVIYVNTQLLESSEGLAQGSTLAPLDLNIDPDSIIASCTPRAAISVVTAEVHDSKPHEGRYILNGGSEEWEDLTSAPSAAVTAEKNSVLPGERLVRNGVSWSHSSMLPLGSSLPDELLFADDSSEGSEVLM

Sequence	phosphorylation enrichment
VPVPGYTKLPE [SPRR3_Y146]	0.499
PPGRSYSPCDY [TNS1_Y793_Y796C]	0.638
HELFVYKSDEN [DOCK3_Y548_C550S_YF]	0.505
RFLRGYRQHAF [HLA-A_Y137_D140H_YF]	0.706
SDVCMYRKNIY [SYNE2_Y570]	0.419
HLTNQFMQRVA [PABPC4_Y382_Y382F]	0.673
GNHISYFQSDG [CACNA1C_Y1757_V1755I_YF]	0.376
ILGLEYSLRLP [HELZ2_Y1304_V1308L]	0.5
AQQPIYVRVEG [NLRP7_Y318]	2.46
PKGTGYIKTES [STAT1_Y701_L706S]	0.553
APIEDYGGGGG [B4GALT6_Y382]	0.461
RAEIVYKSPVV [MAPT_Y711_G706R]	0.415
RFGRKYKKVRF [F8_Y442_I438F]	1.04
FEELVYETVRV [FSHB_Y76_K72E]	4.67
SPQAHYRLSAF [ADAMTS9_Y100_S96P]	0.521
VHNLDYFKQTT [FGFR3_Y647_K650Q_YF]	0.434
KSIDEYLKLVG [RASAL2_Y381_E379D]	0.34

Sequence	phosphorylation enrichment
VLDSHYPEDEV [C1QBP_Y188_C186S]	0.488
DFLSSYSAVNE [OAT_Y85_Q90E]	0.49
MGCVNYGAFIN [GLB1_Y485_R482C_YF]	0.606
TYVVLYDAELT [ERCC4_Y581_R576T]	2.56
FVTSMYNEILI [TRPV1_Y310_M315I]	1.17
IMICAYLLHRG [PTEN_Y138_V133I]	0.536
GGSSPYSRRLA [CDK13_Y351_P356A]	0.443
KFEDVYVGICL [B3GALNT1_Y269]	0.592
NFADPYRQLQF [CTNND2_Y503_YF]	0.454
TQIGQYGNGLK [MORC2_Y100]	0.316
CTTIHYNFMFN [TP53_Y234_C238F_YF]	0.595
LGIDRYHAIVY [NPSR1_Y147_S143G]	0.446
HFVFFYSFLLK [PTEN_Y178_R173H_YF]	1.44
PESCLYKESWI [IQGAP2_Y630_L635I]	0.6
KVKEQYQDVPM [PKP2_Y659]	0.401
KGEDFYCVTRH [FHL1_Y149_C153R]	0.82

molecular target: FGFR3 (UniProt P22607); assay: as above
Sequence (P22607 whole entry, looked up): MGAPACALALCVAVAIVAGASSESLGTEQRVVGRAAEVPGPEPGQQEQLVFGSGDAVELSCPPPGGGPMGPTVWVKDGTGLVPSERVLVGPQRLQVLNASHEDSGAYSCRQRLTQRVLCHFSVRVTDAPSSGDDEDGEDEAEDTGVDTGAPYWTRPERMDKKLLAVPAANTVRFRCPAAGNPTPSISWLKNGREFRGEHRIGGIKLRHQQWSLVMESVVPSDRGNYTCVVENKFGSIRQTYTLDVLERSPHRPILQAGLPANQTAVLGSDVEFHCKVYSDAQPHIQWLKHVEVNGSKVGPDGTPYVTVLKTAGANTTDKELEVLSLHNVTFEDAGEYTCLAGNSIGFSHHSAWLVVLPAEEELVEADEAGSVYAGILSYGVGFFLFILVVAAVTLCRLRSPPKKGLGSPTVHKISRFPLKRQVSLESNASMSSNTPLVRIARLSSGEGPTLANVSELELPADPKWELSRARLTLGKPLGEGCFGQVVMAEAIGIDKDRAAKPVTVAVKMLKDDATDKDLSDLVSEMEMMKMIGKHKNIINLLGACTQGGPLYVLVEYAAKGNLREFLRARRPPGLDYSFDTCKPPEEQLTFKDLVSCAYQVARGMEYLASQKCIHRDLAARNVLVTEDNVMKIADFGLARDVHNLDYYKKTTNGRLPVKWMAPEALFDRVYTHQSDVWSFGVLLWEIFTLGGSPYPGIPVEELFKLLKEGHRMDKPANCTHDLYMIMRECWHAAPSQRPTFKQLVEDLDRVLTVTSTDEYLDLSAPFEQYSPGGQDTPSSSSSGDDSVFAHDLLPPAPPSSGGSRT

Sequence	phosphorylation enrichment
VPVPGYTKLPE [SPRR3_Y146]	0.671
PPGRSYSPCDY [TNS1_Y793_Y796C]	0.799
HELFVYKSDEN [DOCK3_Y548_C550S_YF]	1.13
RFLRGYRQHAF [HLA-A_Y137_D140H_YF]	0.701
SDVCMYRKNIY [SYNE2_Y570]	0.681
HLTNQFMQRVA [PABPC4_Y382_Y382F]	0.631
GNHISYFQSDG [CACNA1C_Y1757_V1755I_YF]	0.496
ILGLEYSLRLP [HELZ2_Y1304_V1308L]	0.942
AQQPIYVRVEG [NLRP7_Y318]	0.787
PKGTGYIKTES [STAT1_Y701_L706S]	0.487
APIEDYGGGGG [B4GALT6_Y382]	0.697
RAEIVYKSPVV [MAPT_Y711_G706R]	0.857
RFGRKYKKVRF [F8_Y442_I438F]	0.651
FEELVYETVRV [FSHB_Y76_K72E]	1.82
SPQAHYRLSAF [ADAMTS9_Y100_S96P]	0.427
VHNLDYFKQTT [FGFR3_Y647_K650Q_YF]	0.819
KSIDEYLKLVG [RASAL2_Y381_E379D]	0.445

Sequence	phosphorylation enrichment
VLDSHYPEDEV [C1QBP_Y188_C186S]	0.736
DFLSSYSAVNE [OAT_Y85_Q90E]	0.685
MGCVNYGAFIN [GLB1_Y485_R482C_YF]	0.825
TYVVLYDAELT [ERCC4_Y581_R576T]	1.52
FVTSMYNEILI [TRPV1_Y310_M315I]	0.903
IMICAYLLHRG [PTEN_Y138_V133I]	0.77
GGSSPYSRRLA [CDK13_Y351_P356A]	0.395
KFEDVYVGICL [B3GALNT1_Y269]	1.24
NFADPYRQLQF [CTNND2_Y503_YF]	0.557
TQIGQYGNGLK [MORC2_Y100]	0.345
CTTIHYNFMFN [TP53_Y234_C238F_YF]	0.945
LGIDRYHAIVY [NPSR1_Y147_S143G]	1.84
HFVFFYSFLLK [PTEN_Y178_R173H_YF]	1.14
PESCLYKESWI [IQGAP2_Y630_L635I]	1.17
KVKEQYQDVPM [PKP2_Y659]	0.48
KGEDFYCVTRH [FHL1_Y149_C153R]	0.715

test system: AncSZ; assay: as above

Sequence	phosphorylation enrichment
VPVPGYTKLPE [SPRR3_Y146]	0.865
PPGRSYSPCDY [TNS1_Y793_Y796C]	1.19
HELFVYKSDEN [DOCK3_Y548_C550S_YF]	1.87
RFLRGYRQHAF [HLA-A_Y137_D140H_YF]	0.606
SDVCMYRKNIY [SYNE2_Y570]	1.12
HLTNQFMQRVA [PABPC4_Y382_Y382F]	0.791
GNHISYFQSDG [CACNA1C_Y1757_V1755I_YF]	0.742
ILGLEYSLRLP [HELZ2_Y1304_V1308L]	1.37
AQQPIYVRVEG [NLRP7_Y318]	0.967
PKGTGYIKTES [STAT1_Y701_L706S]	0.588
APIEDYGGGGG [B4GALT6_Y382]	0.872
RAEIVYKSPVV [MAPT_Y711_G706R]	0.995
RFGRKYKKVRF [F8_Y442_I438F]	0.708
FEELVYETVRV [FSHB_Y76_K72E]	3.82
SPQAHYRLSAF [ADAMTS9_Y100_S96P]	0.532
VHNLDYFKQTT [FGFR3_Y647_K650Q_YF]	0.767
KSIDEYLKLVG [RASAL2_Y381_E379D]	0.843

Sequence	phosphorylation enrichment
VLDSHYPEDEV [C1QBP_Y188_C186S]	1.33
DFLSSYSAVNE [OAT_Y85_Q90E]	0.896
MGCVNYGAFIN [GLB1_Y485_R482C_YF]	1.05
TYVVLYDAELT [ERCC4_Y581_R576T]	1.37
FVTSMYNEILI [TRPV1_Y310_M315I]	1.16
IMICAYLLHRG [PTEN_Y138_V133I]	1.3
GGSSPYSRRLA [CDK13_Y351_P356A]	0.626
KFEDVYVGICL [B3GALNT1_Y269]	1.37
NFADPYRQLQF [CTNND2_Y503_YF]	0.765
TQIGQYGNGLK [MORC2_Y100]	0.475
CTTIHYNFMFN [TP53_Y234_C238F_YF]	1.27
LGIDRYHAIVY [NPSR1_Y147_S143G]	0.717
HFVFFYSFLLK [PTEN_Y178_R173H_YF]	2.18
PESCLYKESWI [IQGAP2_Y630_L635I]	1.18
KVKEQYQDVPM [PKP2_Y659]	0.667
KGEDFYCVTRH [FHL1_Y149_C153R]	1.22

molecular target: Hck (UniProt P08631); assay: as above
Sequence (P08631 whole entry, looked up): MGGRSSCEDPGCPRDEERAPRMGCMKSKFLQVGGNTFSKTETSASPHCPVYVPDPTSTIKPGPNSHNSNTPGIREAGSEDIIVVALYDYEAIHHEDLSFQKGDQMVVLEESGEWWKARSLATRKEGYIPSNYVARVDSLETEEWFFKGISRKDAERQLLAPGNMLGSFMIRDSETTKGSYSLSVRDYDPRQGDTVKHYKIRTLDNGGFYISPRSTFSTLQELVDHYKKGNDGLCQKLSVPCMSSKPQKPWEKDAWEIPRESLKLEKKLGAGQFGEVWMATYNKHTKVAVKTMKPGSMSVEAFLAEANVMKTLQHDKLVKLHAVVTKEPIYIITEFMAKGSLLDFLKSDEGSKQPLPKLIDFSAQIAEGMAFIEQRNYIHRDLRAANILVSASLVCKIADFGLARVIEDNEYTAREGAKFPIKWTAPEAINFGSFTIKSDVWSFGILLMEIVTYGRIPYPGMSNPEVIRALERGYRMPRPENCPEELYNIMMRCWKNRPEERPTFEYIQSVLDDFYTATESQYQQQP

Sequence	phosphorylation enrichment
VPVPGYTKLPE [SPRR3_Y146]	0.487
PPGRSYSPCDY [TNS1_Y793_Y796C]	0.586
HELFVYKSDEN [DOCK3_Y548_C550S_YF]	0.66
RFLRGYRQHAF [HLA-A_Y137_D140H_YF]	0.581
SDVCMYRKNIY [SYNE2_Y570]	0.51
HLTNQFMQRVA [PABPC4_Y382_Y382F]	0.722
GNHISYFQSDG [CACNA1C_Y1757_V1755I_YF]	0.392
ILGLEYSLRLP [HELZ2_Y1304_V1308L]	0.479
AQQPIYVRVEG [NLRP7_Y318]	1.74
PKGTGYIKTES [STAT1_Y701_L706S]	0.525
APIEDYGGGGG [B4GALT6_Y382]	0.509
RAEIVYKSPVV [MAPT_Y711_G706R]	0.674
RFGRKYKKVRF [F8_Y442_I438F]	0.674
FEELVYETVRV [FSHB_Y76_K72E]	6.88
SPQAHYRLSAF [ADAMTS9_Y100_S96P]	0.37
VHNLDYFKQTT [FGFR3_Y647_K650Q_YF]	0.525
KSIDEYLKLVG [RASAL2_Y381_E379D]	0.489

Sequence	phosphorylation enrichment
VLDSHYPEDEV [C1QBP_Y188_C186S]	0.516
DFLSSYSAVNE [OAT_Y85_Q90E]	0.554
MGCVNYGAFIN [GLB1_Y485_R482C_YF]	0.532
TYVVLYDAELT [ERCC4_Y581_R576T]	0.891
FVTSMYNEILI [TRPV1_Y310_M315I]	1.14
IMICAYLLHRG [PTEN_Y138_V133I]	0.525
GGSSPYSRRLA [CDK13_Y351_P356A]	0.425
KFEDVYVGICL [B3GALNT1_Y269]	1.99
NFADPYRQLQF [CTNND2_Y503_YF]	0.539
TQIGQYGNGLK [MORC2_Y100]	0.421
CTTIHYNFMFN [TP53_Y234_C238F_YF]	0.569
LGIDRYHAIVY [NPSR1_Y147_S143G]	0.683
HFVFFYSFLLK [PTEN_Y178_R173H_YF]	0.819
PESCLYKESWI [IQGAP2_Y630_L635I]	0.872
KVKEQYQDVPM [PKP2_Y659]	0.48
KGEDFYCVTRH [FHL1_Y149_C153R]	0.808
